Reference: publication doi:10.1101/2021.06.01.446150

How the values were obtained:
[1] = target: human ghrelin O-acyltransferase (hGOAT), FLAG-tagged, wild type (human) (UniProt Q96T53)
[2] = target: endogenous hGOAT of prostate cancer cells (human (endogenous in 22Rv1 and LNCaP)) (UniProt Q96T53); test: confocal imaging of fluorescent ligand binding and uptake by cells

inhibition of hGOAT activity by ligand 15 [1]: 17 nM
percent of cells exhibiting ligand binding [2]: 100%
Substance: H-GS-Dap-Nal-1-LSPTK(SulfoCy5)-NH2 (ligand 15) (peptide)
